B1: R2R3-G303V peptide fragment (peptide, UniProt P10636-8 295-311, looked up)
peptide: Ac-DNIKHVPGVGSVQIVYK-NH2
notes: source: synthetic peptide (Genscript)
B2: 306VQIVYK311 hexapeptide (peptide)
peptide: Ac-VQIVYK-NH2
notes: also called amyloid motif; source: synthetic peptide (Genscript)
B3: R2R3-P301S peptide fragment (peptide, UniProt P10636-8 295-311, looked up)
peptide: Ac-DNIKHVSGGGSVQIVYK-NH2
notes: as for B1
B4: R2R3-S305N peptide fragment (peptide, UniProt P10636-8 295-311, looked up)
peptide: Ac-DNIKHVPGGGNVQIVYK-NH2
notes: as for B1
B5: R2R3-N296Δ peptide fragment (peptide, UniProt P10636-8 295-311, looked up)
peptide: Ac-DIKHVPGGGSVQIVYK-NH2
notes: as for B1
B6: R2R3-V300I peptide fragment (peptide, UniProt P10636-8 295-311, looked up)
peptide: Ac-DNIKHIPGGGSVQIVYK-NH2
notes: as for B1
B7: R2R3-P301L peptide fragment (peptide, UniProt P10636-8 295-311, looked up)
peptide: Ac-DNIKHVLGGGSVQIVYK-NH2
notes: as for B1

Target: the molecule itself
Experiment: ThT fluorescence aggregation assay; spontaneous self-assembly of disaggregated synthetic peptides, 200 µM, PBS, 25 µM ThT, room temperature, no inducer; the R2R3 peptides of Fig. 4 also looked at by TEM

Binding result, binds:
B1, B2, B3, B4, B5, B6, B7

— article PMC6555816, “Tau local structure shields an amyloid-forming motif and controls aggregation propensity” (Nature Communications, 2019)
